{
  "source": "the supplement of paper PMC11865577",
  "data": [
    {"test_system": "TO-N3 (biotin conjugate)", "test": "pull-down binding Z-score (relative to library population); higher = stronger binding", "conditions": "RNA library: Library-2", "in_short": "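Cy5- or Cy3-end-labelled RNA library (1 μg) was heat-folded in phosphate/NaCl/KCl buffer and incubated 60 min at 25 °C with streptavidin beads carrying 100 pmol biotin-conjugated small molecule. After three washes, bound RNA was eluted in hot SDS and hybridised 20 h at 55.5 °C to a DNA barcode microarray. Binding was scored by subtracting a beads-only control, averaging barcoded replicate probes after dropping highest and lowest, and converting to a Z-score against library mean and standard deviation.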", "values": [
      {"sequence": "GGGAAAGAAGUCCU [IAV_invivo_HA_4_Motif_8+IAV_invivo_HA_4_Motif_8]", "pull-down binding Z-score": -0.705},
      {"sequence": "GGGAAGAACACC [IAV_invivo_M1_M2_7_Motif_3+IAV_invivo_M1_M2_7_Motif_3]", "pull-down binding Z-score": 0.899},
      {"sequence": "GGGAAGGCGAAAGACC [IAV_invivo_PA_3_Motif_21+IAV_invivo_PA_3_Motif_21]", "pull-down binding Z-score": 0.603},
      {"sequence": "GGGAAUAUAAUCUC [IAV_invivo_NA_6_Motif_2+IAV_invivo_NA_6_Motif_2]", "pull-down binding Z-score": 1.33},
      {"sequence": "GGGACUGAGAAUUAGCUCAUCCU [IAV_invivo_PB2_1_Motif_14+IAV_invivo_PB2_1_Motif_14]", "pull-down binding Z-score": -0.536},
      {"sequence": "GGGACUUAUGAUUAUCCC [IAV_invivo_HA_4_Motif_18+IAV_invivo_HA_4_Motif_18]", "pull-down binding Z-score": -0.122},
      {"sequence": "GGGAGAGACGAACAGUCGAUUGCC [IAV_invivo_PB2_1_Motif_17+IAV_invivo_PB2_1_Motif_17]", "pull-down binding Z-score": 0.0259},
      {"sequence": "GGGAGAUAACAUUCC [IAV_invivo_M1_M2_7_Motif_7+IAV_invivo_M1_M2_7_Motif_7]", "pull-down binding Z-score": -0.16},
      {"sequence": "GGGAGAUUAAUGGUCCU [IAV_invivo_PB2_1_Motif_25+IAV_invivo_PB2_1_Motif_25]", "pull-down binding Z-score": 0.327},
      {"sequence": "GGGAGCAAACCC [IAV_invivo_PB1_2_Motif_31+IAV_invivo_PB1_2_Motif_31]", "pull-down binding Z-score": -0.425},
      {"sequence": "GGGAGCUAUAAACAGCAGUCUCCC [IAV_invivo_HA_4_Motif_12+IAV_invivo_HA_4_Motif_12]", "pull-down binding Z-score": 0.537},
      {"sequence": "GGGAGUCUUCGAGCUCUC [IAV_invivo_NP_5_Motif_24+IAV_invivo_NP_5_Motif_24]", "pull-down binding Z-score": -0.358},
      {"sequence": "GGGAUUAUCCU", "pull-down binding Z-score": -0.927},
      {"sequence": "GGGCAAGCUGUCUCAAAUGUCC [IAV_invivo_PA_3_Motif_10+IAV_invivo_PA_3_Motif_10]", "pull-down binding Z-score": -0.543},
      {"sequence": "GGGCCACUGCCAGAAGACAAUGAACCAAGUGGUUAUGCCC [IAV_invivo_PB1_2_Motif_5+IAV_invivo_PB1_2_Motif_5]", "pull-down binding Z-score": 0.0266},
      {"sequence": "GGGCCUCCCUGUUCUCAGCGGUCC [IAV_invivo_PA_3_Motif_11+IAV_invivo_PA_3_Motif_11]", "pull-down binding Z-score": -0.152},
      {"sequence": "GGGCUAGAUUCCC [DMSMaPseq_invitro_SARS-CoV-2_Motif_228]", "pull-down binding Z-score": -0.867},
      {"sequence": "GGGCUCAGAAUAUGACUAUGUCAUAUUCACUCAAACCACUGAAACAGCUC [SHAPE_invitro_SARS-CoV-2_Motif_328]", "pull-down binding Z-score": -0.428},
      {"sequence": "GGGCUCAUACCC [IAV_invivo_HA_4_Motif_7+IAV_invivo_HA_4_Motif_7]", "pull-down binding Z-score": 0.483},
      {"sequence": "GGGCUGUGACCACUGAAGUGGCAUUUGGCCU [IAV_invivo_M1_M2_7_Motif_9+IAV_invivo_M1_M2_7_Motif_9]", "pull-down binding Z-score": -0.176},
      {"sequence": "GGGGACGACCU [IAV_invivo_NA_6_Motif_17+IAV_invivo_NA_6_Motif_17]", "pull-down binding Z-score": 0.481},
      {"sequence": "GGGGAUCUAUCAGAUUCUGGCGAUCUACUCAACUGUCGCCAGUUCACUGGUGCUUUUGGUCUCC [IAV_invivo_HA_4_Motif_19+IAV_invivo_HA_4_Motif_19]", "pull-down binding Z-score": 0.629},
      {"sequence": "GGGGCCGGGGCCGGGGCCGGGGCCGGGGCCGGGGCC [G4_r(GGGGCC)8]", "pull-down binding Z-score": 3.9},
      {"sequence": "GGGGCGUUUAUGCAACCC [IAV_invivo_PB1_2_Motif_33+IAV_invivo_PB1_2_Motif_33]", "pull-down binding Z-score": -0.497},
      {"sequence": "GGGGCUGAGAAACCAAAGUUUC [IAV_invivo_PA_3_Motif_3+IAV_invivo_PA_3_Motif_3]", "pull-down binding Z-score": 0.788},
      {"sequence": "GGGGUGAAGAGGAUACUUACCUG [U1snRNP5ss-12]", "pull-down binding Z-score": 0.427},
      {"sequence": "GGGGUGUACAUCAAUACUGCCUU [IAV_invivo_PA_3_Motif_19+IAV_invivo_PA_3_Motif_19]", "pull-down binding Z-score": 1.4},
      {"sequence": "GGGUACGACUUUGAAAGGGAGGGAUACUCUCUAGUCGGAAUAGACCC [IAV_invivo_NP_5_Motif_16+IAV_invivo_NP_5_Motif_16]", "pull-down binding Z-score": 0.986},
      {"sequence": "GGGUAGGGUUUGGGGGAGAGCGUGGGCUGGGGUUCAGGGACA [pre-miRNA-1229_WT_FL]", "pull-down binding Z-score": 6.62},
      {"sequence": "GGGUAGGGUUUGGGGGAGAGUGUGGGCUGGGGUUCAGGGACA [pre-miRNA-1229_SNP_FL]", "pull-down binding Z-score": 6.27},
      {"sequence": "GGGUAGUGGUGAGCAUUGACC [IAV_invivo_PB2_1_Motif_22+IAV_invivo_PB2_1_Motif_22]", "pull-down binding Z-score": 1.28},
      {"sequence": "GGGUCGGUUGCUCACAAGUCCUGCCUGCCUGCCU [IAV_invivo_NP_5_Motif_15+IAV_invivo_NP_5_Motif_15]", "pull-down binding Z-score": 0.865},
      {"sequence": "GGGUGGGUGGGUGGGUGGGUGGGU [G4_r(GGGU)6]", "pull-down binding Z-score": 7.43},
      {"sequence": "GGGUGGGUGGGUGGGUGGGUGGGUGGGUGGGU [G4_r(GGGU)8]", "pull-down binding Z-score": 7.37},
      {"sequence": "GGGUUGGGUUGGGUUGGGUUGGGUUGGGUU [G4_r(GGGUU)6]", "pull-down binding Z-score": 6.75},
      {"sequence": "GGGUUGGGUUGGGUUGGGUUGGGUUGGGUUGGGUUGGGUU [G4_r(GGGUU)8]", "pull-down binding Z-score": 7.46},
      {"sequence": "GGGUUUACAAACAAUUUGAUACUUAUAACCU [DMSMaPseq_invitro_SARS-CoV-2_Motif_347]", "pull-down binding Z-score": -0.828},
      {"sequence": "GGUAAAAUUGUUAAUAAUUGGUUGAAGCAGUUAAUUAAAGUUACACUUGUGUUCCUUUUUGUUGCUGCUAUUUUCUAUUUAAUAACACC [DMSMaPseq_invitro_SARS-CoV-2_Motif_156]", "pull-down binding Z-score": -0.828},
      {"sequence": "GGUAAUUAUACAGUUUCCUGUUUACC [DMSMaPseq_invitro_SARS-CoV-2_Motif_504]", "pull-down binding Z-score": -1.05},
      {"sequence": "GGUAAUUAUACAGUUUCCUGUUUACCUUUUACAAUUAAUUGCC [SHAPE_invitro_SARS-CoV-2_Motif_513]", "pull-down binding Z-score": -1.04},
      {"sequence": "GGUACAACAACUUACAAAUUAAAUGUUGGUGAUUAUUUUGUGCU [SHAPE_invivo_SARS-CoV-2_Motif_319]", "pull-down binding Z-score": -0.509},
      {"sequence": "GGUACAUUUACUUGUGCU [SHAPE_invivo_SARS-CoV-2_Motif_118]", "pull-down binding Z-score": 0.678},
      {"sequence": "GGUACGUUAAUAGUUAAUAGCGUACUUCUUUUUCUUGCUUUCGUGGUAUUCUUGCUAGUUACACUAGCCAUCCUUACUGCGCUUCGAUUGUGUGCGUACU", "pull-down binding Z-score": 0.41},
      {"sequence": "GGUCAAAUCAAUGAUAUGAUUUUAUC", "pull-down binding Z-score": -1.26},
      {"sequence": "GGUCAGAAUGAUC [IAV_invivo_NP_5_Motif_12+IAV_invivo_NP_5_Motif_12]", "pull-down binding Z-score": -0.601},
      {"sequence": "GGUCCAGAACAAACCCAAGGAAAUUUUGGGGACC", "pull-down binding Z-score": 0.0164},
      {"sequence": "GGUCCAGCAACAGCUCAAAUGGCC [IAV_invivo_PB1_2_Motif_29+IAV_invivo_PB1_2_Motif_29]", "pull-down binding Z-score": -0.26},
      {"sequence": "GGUCUAUAUGCC [SHAPE_invivo_SARS-CoV-2_Motif_218]", "pull-down binding Z-score": 0.0896},
      {"sequence": "GGUCUCCGACGGAGGCC [IAV_invivo_PB1_2_Motif_32+IAV_invivo_PB1_2_Motif_32]", "pull-down binding Z-score": -0.183},
      {"sequence": "GGUCUGCAGGACU [IAV_invivo_PA_3_Motif_27+IAV_invivo_PA_3_Motif_27]", "pull-down binding Z-score": -0.125},
      {"sequence": "GGUGAAGGACGGGUCCAGUAGUUCGCUACUGUUGAGUAGAGUGUGAGCUCC [BabySpinach]", "pull-down binding Z-score": 2.08},
      {"sequence": "GGUGACAACAACC [IAV_invivo_M1_M2_7_Motif_11+IAV_invivo_M1_M2_7_Motif_11]", "pull-down binding Z-score": -0.366},
      {"sequence": "GGUGCUCCCAAGAGGGAAGCU [IAV_invivo_NP_5_Motif_18+IAV_invivo_NP_5_Motif_18]", "pull-down binding Z-score": 0.405},
      {"sequence": "GGUGGAAUUGGACGAUUCUACAUCCAAAUGUGCACC [IAV_invivo_NP_5_Motif_3+IAV_invivo_NP_5_Motif_3]", "pull-down binding Z-score": -0.779},
      {"sequence": "GGUGGCAAACCUUGUAUCAAAGUAGCCACU [SHAPE_invitro_SARS-CoV-2_Motif_216]", "pull-down binding Z-score": -0.798},
      {"sequence": "GGUGGUAUUGUAGCUAUCGUAGUAACAUGCCUUGCC", "pull-down binding Z-score": 0.693},
      {"sequence": "GGUGUGGAUGGCAUGCC [IAV_invivo_NP_5_Motif_17+IAV_invivo_NP_5_Motif_17]", "pull-down binding Z-score": -0.121},
      {"sequence": "GGUGUUGCAGGAGCCUUAAAUAAGGCUACUAACAAUGCC [SHAPE_invivo_SARS-CoV-2_Motif_68]", "pull-down binding Z-score": -0.882},
      {"sequence": "GGUGUUGUUGGAGAAGGUUCCGAAGGUCUUAAUGACAACCUUCUUGAAAUACUCC", "pull-down binding Z-score": 0.261},
      {"sequence": "GGUGUUUAUUACC", "pull-down binding Z-score": -0.968},
      {"sequence": "GGUGUUUUAACU", "pull-down binding Z-score": -0.303},
      {"sequence": "GGUGUUUUAACUGCUGUGGUUAUACCUACUAAAAAGGCUGGUGGCACUACUGAAAUGCU", "pull-down binding Z-score": -0.521},
      {"sequence": "GGUUAUAAGAAACC", "pull-down binding Z-score": -0.351},
      {"sequence": "GGUUCAACUCUCCCUAGGAGGUCUGGAGCC [IAV_invivo_NP_5_Motif_11+IAV_invivo_NP_5_Motif_11]", "pull-down binding Z-score": -0.225}
    ]}
  ]
}
